Experimental data as given in patent US20140079722A1, “EXTRACELLULAR TARGETED DRUG CONJUGATES” (CENTROSE, LLC, priority 2011, published 2014).

What was measured:
A549 xenograft = A549 xenograft model (cell implant); type: in vivo, Hsd:Athymic Nude-Foxn1nu mice
Description: Briefly, to establish a non-small-cell lung cancer disease model, 6×10^6 A549 cells in 200 μL, RPMI1640+50% Matrigel HC (BD Biosciences, San Jose, Calif.) were implanted into the left flank of Hsd:Athymic Nude-Foxn1^nu mice (Harlan, Indianapolis, Ind.). Therapy with antibody-drug conjugates was then initiated when the tumor volume in groups of 5 animals averaged ˜300 mm^3. Treatment using vehicle control, 0.1 and 1 mg/kg M53-PEG24-CEN09-106, and 10 mg/kg control M53-PEG24-CEN09-106 (a control conjugate with a drug loading of 7 drugs per antibody where the antibody's target is not on the cell surface but drug and linker and antibody isotype are the same as M53-PEG24-CEN09-106) were all administered i.v. using the schedule of one injection every 7 days with 3 total injected doses (q7d×3). 15 mg/kg paclitaxel dosed at q2d×5 served as a positive control treatment group. Using this schedule, tumor volumes were measured for each group using calibrated vernier calipers and plotted against first day of tumor implant for 54 days post-implant and 40 days post-initial dose, to produce the graph shown in FIG. 3.

A549 xenografts = test: Second A549 xenograft study (tumor fragments); type: in vivo, female HRLN nu/nu mice
Description: Briefly, to establish a non-small-cell lung cancer disease model, subcutaneous A549 xenografts were initiated in female HRLN nu/nu mice by implanting 8 mm^3 A549 tumor fragments subcutaneously into the left flank. Tumor growth was monitored, and mice bearing tumors of 60-180 mm^3 were selected for the study. Tumor-bearing mice (n=7 mice/group) with a group average tumor volume of approximately 110 mm^3 were treated i.p. with 5 mgs/kg M53-PEG24-CEN09-106 at q3d×4, 20 mg/kg scillarenin-4-amino-deoxy-L-xylopryanoside (an intermediate in the construction of M53-PEG24-CEN09-106 and known cytotoxin) at q2dx5, and 15 mg/kg paclitaxel at q1d×5. Tumor volumes were measured for each group using calibrated vernier calipers plotted against day of first dose for 100 days to produce the graph shown in FIG. 4.
Paclitaxel at its optimum dosing produced 80% growth inhibition of the tumor when compared to vehicle.

[1] = Pharmacokinetics with varying drug loading (antigen binding ELISA); type: in vivo; conditions: SCID beige mice
Description: Serum was isolated from blood samples taken by retro-orbital blood collection at 1 hour, and 1, 2, 3, 6, and 15 days post-injection. Blood was collected into heparin coated tubes followed by centrifugation (5,000×g, 5 minutes) to isolate plasma.
Antigen capture plates that were prepared by coating wells of 96 well clear bottom ELISA plates with CENP018 (SEQ ID NO: 17) conjugated to BSA at 400 ng BSA-peptide conjugate per well in 100 uL of 200 mM carbonate buffer, pH 9.6 overnight at 4° C. Antigen coated ELISA plates were washed (×3) with PBS pH 7, blocked 30 min with PBS pH 7 containing 1% NFDM (PBS+NFDM), and then washed (×3) with PBS, pH 7. […] Goat anti-mouse IgG alkaline phosphatase (cat. number: A1418, Sigma-Aldrich, St. Louis, Mo.) was diluted 1:15,000 in PBS+NFDM and added (100 uL) to each well, incubated 30 min at RT, and the wells washed (×3) with PBS, pH 7. PNPP at 1 mg/mL in 1M DEA with 50 mM MgCl2, pH 9.8 was added (100 uL per well), and the absorbance at 405 nm was determined using a Wallac Victor^2 Model 1420-041 assay plate reader (Perkin Elmer, Gaithersburg, Md.) every 5 minutes for a total of 6 reads. Absorbance values from known antibody concentration standards were used to determine the concentration of antibody in the serum samples.

H460 xenograft = H460 xenograft model; type: in vivo, Hsd:Athymic Nude-Foxn1nu mice
Description: Briefly, to establish a large-cell lung cancer disease model, 1×10^6 H-460 cells in 100 μL RPMI1640+30% Matrigel HC (BD Biosciences, San Jose, Calif.) were implanted into the left flank of Hsd:Athymic Nude-Foxn1^nu mice (Harlan, Indianapolis, Ind.). Therapy was initiated when the tumor size in groups of 5 animals averaged ˜200 mm^3. Treatment using vehicle control, M53-PEG24-CEN09-106 at 0.1 and 1 mg/kg, and 10 mg/kg control M53-PEG24-CEN09-106 (as described above) consisted of multiple i.v. injections using the schedule of one injection every 7 days for 2 injections (q7d×2). Paclitaxel served as a positive control treatment group and was dosed i.v. at 15 mg/kg using the schedule of one injection every 2 days for 5 injections (q2d×5). Using this schedule, tumor volumes were measured for each group using calibrated vernier calipers and plotted against day of tumor implant for 24 days post-implant and 12 days post-initial dose, graphed and shown in FIG. 5.

[2] = Single intraperitoneal dose tolerability; type: in vivo, male BALB/c mice; conditions: drug loading of 2, 500 mg/kg intraperitoneal
Description: In a separate experiment, male BALB/c mice (BALB/cAnNHsd, Harlan Laboratories) were administered a single and immediate dose of 500 mg/kg of M53-PEG24-CEN09-106 with a drug loading of 2 drugs per antibody by intraperitoneal injection. Animal weights were recorded over a 22 day period and visual observations were made over a period of 146 days and compared to mice receiving a vehicle control. […] Mice regained normal control body weight by day 15.

B1: M53-PEG24-CEN09-106: Class 1 EDC: antibody M53 conjugated to linker-ready agent PEG24-CEN09-106 (scillarenin, 4-amino-xyloside, PEG24) (conjugate)
heavy: EVQLVESGGGLVQPKGTLKLSCAASGFSFNTHAMNWVRQAPGKSLEWVARTMSKSNNYATYYADSVKDRFIIRADDSQSMLYLQMNNLKTEDTAMYYCVRDDPKRGMDYWGQGTSVTVSSAKTTPPSVYPLAPGSAAQTNSMVTLGCLVKGYFPEPVTVTWNSGSLSSGVHTFPAVLQSDLYTLSSSVTVPSSTWPSETVTCNVAHPASSTKVDKKIE
light: GIVMSQSPSSLAVSVGEKVTMSCKPSQSLLYSRNQKIYLAWYQQKPGQSPKLLIYWASTRESGVPDRFTGSGSGTDFTLIISSVRAEDLAVYYCQQYYNYPLTFGAGTKLELKRADAAPTVSIFPPSSEQLTSGGASVVCFLNNFYPKDINVKWKIDGSERQNGVLNSWTDQDSKDSTYSMSSTLTLTKDEYERHNSYTCEATHKTSTSPIVKSFNR
A549 xenograft; drug loading of 8, 0.1 mg/kg i.v. q7dx3, A549 xenograft
  growth inhibition of the tumor compared to vehicle: 35%
A549 xenograft; drug loading of 8, 1 mg/kg i.v. q7dx3, A549 xenograft
  growth inhibition of the tumor compared to vehicle: 65%
A549 xenografts; 100 days post-initial dose, EDC (loading 3) 5 mg/kg i.p. q3dx4, scillarenin aminoxyloside 20 mg/kg q2dx5, paclitaxel 15 mg/kg q1dx5
  growth inhibition of the tumor compared to vehicle: 72%
A549 xenografts; same dosing as efficacy arms, second A549 xenograft study
  weight loss: no weight loss
[1]; drug loading of 2, 1 mg/kg tail vein
  serum half-life of detectable antibody: approximately 7 days
[1]; drug loading of 5, 1 mg/kg tail vein
  serum half-life of detectable antibody: ~96 h
[1]; drug loading of 9, 1 mg/kg tail vein
  serum half-life of detectable antibody: ~48 h
H460 xenograft; EDC 0.1 mg/kg q7dx2, paclitaxel 15 mg/kg q2dx5, H460 xenograft
  weight loss: no weight loss
H460 xenograft; drug loading of 8, 0.1 mg/kg i.v. q7dx2, H460 xenograft
  growth inhibition of the tumor compared to vehicle: 38%
H460 xenograft; drug loading of 8, 1 mg/kg i.v. q7dx2, H460 xenograft
  growth inhibition of the tumor compared to vehicle: 73%
[2]; 146 days
  visual observations: no overt signs of toxicity
[2]; first 6 days post injection
  average loss in body weight: 30%
